For this assay, the target named is QC (Homo sapiens, UniProt Q16769). Nature of the assay: LC/MS analysis of QC-catalyzed pyroglutamate formation. In kind it is biochemical.

Here are results for 1 molecule from patent US7462599B2, “Use of effectors of glutaminyl and glutamate cyclases” (Probiodrug AG, priority 2003, dated 2008).

Chain of QC (Q16769 29-361): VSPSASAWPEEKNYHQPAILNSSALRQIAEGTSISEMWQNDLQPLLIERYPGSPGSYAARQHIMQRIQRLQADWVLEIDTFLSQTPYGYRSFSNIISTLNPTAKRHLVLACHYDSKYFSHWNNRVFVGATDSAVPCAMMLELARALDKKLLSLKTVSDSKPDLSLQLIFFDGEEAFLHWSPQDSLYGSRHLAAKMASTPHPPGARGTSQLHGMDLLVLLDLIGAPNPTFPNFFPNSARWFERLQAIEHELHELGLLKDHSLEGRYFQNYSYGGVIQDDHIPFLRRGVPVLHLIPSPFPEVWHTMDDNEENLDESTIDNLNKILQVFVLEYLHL

B1: MCP-2 isoforms: Human Monocyte Chemotactic Protein 2 (MCP-2) isoforms, 76 residue chemokine (protein, UniProt P80075 24-99, looked up)
C-C motif chemokine 8: QPDSVSIPITCCFNVINRKIPIQRLESYTRITNIQCPKEAVIFKTKRGKEVCADPKERWVRDSMKHLDQIFQNLKP
Take B1: the “formation of N-terminal pyroglutamate catalyzed by QC” value was “is catalyzed by QC”.
